Assay results as given in publication PMC4701952.

Molecular target: T1, SEP3 full length wild type (A. thaliana), O22456
T1 chain: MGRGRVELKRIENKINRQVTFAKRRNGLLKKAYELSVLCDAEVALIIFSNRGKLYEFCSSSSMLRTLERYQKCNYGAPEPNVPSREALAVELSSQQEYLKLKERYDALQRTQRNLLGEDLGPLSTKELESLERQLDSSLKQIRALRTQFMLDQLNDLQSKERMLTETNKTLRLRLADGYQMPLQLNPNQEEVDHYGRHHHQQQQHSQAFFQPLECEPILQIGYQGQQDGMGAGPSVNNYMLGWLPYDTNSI
Assay: native gel or EMSA; in vitro translated proteins (not purified) with Cy5 labelled SOC1 promoter DNA in which CArG box 1 or CArG box 2 is mutated (one site left)
Settings: remark: other sources report otherwise

stoichiometry N: 4
B1: SEP3 full length wild type, O22456 1-251 (natural protein)
chain: MGRGRVELKRIENKINRQVTFAKRRNGLLKKAYELSVLCDAEVALIIFSNRGKLYEFCSSSSMLRTLERYQKCNYGAPEPNVPSREALAVELSSQQEYLKLKERYDALQRTQRNLLGEDLGPLSTKELESLERQLDSSLKQIRALRTQFMLDQLNDLQSKERMLTETNKTLRLRLADGYQMPLQLNPNQEEVDHYGRHHHQQQQHSQAFFQPLECEPILQIGYQGQQDGMGAGPSVNNYMLGWLPYDTNSI
